B1: Strep-tagged Fab 158 (Fab, V domains shown)
VH: EVQLLESGGDLIQPGGSLRLSCAASGVTVSSNYMSWVRQAPGKGLEWVSIIYPGGSTFYADSVKGRFTISRDNSKNTLYLQMHSLRAEDTAVYYCARDLGSGDMDVWGKGTTVTVSS
VL: DIVMTQSPSFLSASVGDRVTITCRASQGISSYLAWYQQKPGKAPKLLIQAASTLQSGVPSRFSGSGSGTEFTLTISSLQPEDFATYYCQQLNSYRYTFGQGTKVEIK
notes: also called Fab58 (as printed in the crystallization paragraph); source: HEK293T, transient transfection, purified (Strep-Tactin)
B2: Fab75 (Fab, V domains shown)
VH: QVQLVESGGGVVQPGRSLRLSCAASGFTFNNYPLHWVRQAPGKGPEWVAVISQDGGNKYYVDSVKGRFTISRDNSKNTLYLQMNNLRAEDTALYYCARDVVVVVAARNHYYNGMDVWGQGTTVTVSS
VL: DIQLTQSPSSVSASVGDRVTITCRASQGISSWLAWYQQKPGKAPKLLIYAVSSLQSGVPSRFSGSGSGTDFTLTISSLQPEDFATYYCQQAKSFPFTFGPGTKVEIK
notes: also called mAb 75
B3: Fab384 (Fab, V domains shown)
VH: EVQLVESGGGLVKPGESLRLSCAASGFTFSDYYMTWIRQAPGKGLEWVSYIRSSGHTIYYADSVKGRFTISRDNAKNSLYLQMNSLRVEDTAVYYCARGGVLRFLEWPLNAFDIWGQGTMVTVSS
VL: DIQLTQSPSSLSASVGDRVTITCRASQGISNYLAWYQQKPGKVPKLLIYAASTLQSGVPSRFSGSGSGTDFTLTISSLQPEDVATYYCQKYNNALGTFGQGTKVEIK
B4: Fab 150 (Fab, V domains shown)
VH: QVQLVESGGGLIQPGGSLRLSCAASGVTVSSNYMSWVRQAPGKGLEWVSIIYSGGTTYYADSVKGRFTISRDSSMNTLYLQMNSLRAEDTAVYYCARDLMVYGIDVWGQGTTVTVSS
VL: EIVMTQSPSSLSASVGDRVTITCRASQGISSYLAWYQQKPGKAPKLLIYAASTLQSGVPSRFSGSGSGTDFTLTISSLQPEDFATYYCQQLDSYPPGYTFGQGTKVDIK
B5: Fab 40 (Fab, V domains shown)
VH: QVQLVESGGGLVQPGGSLRLSCAVSGFTVSRNYMSWVRQAPGKGLEWVSLIYSGGSTFYADSVKGRFTISRDNSKNTLYLQMNSLRAEDTAVYYCARDLFHRSGYHDYWGQGTLVTVSS
VL: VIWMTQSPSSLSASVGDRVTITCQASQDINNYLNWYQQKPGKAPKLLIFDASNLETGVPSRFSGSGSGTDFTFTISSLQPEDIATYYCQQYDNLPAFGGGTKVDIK
notes: also called 40 Fab
B6: Fab 158 (Fab, V domains shown)
VH: B1 VH
VL: B1 VL
B7: chimeric mAb 253H165L (IgG) (antibody, V domains shown)
VH: not shown
VL: DIVMTQSPGTLSLSPGERATLSCRASQSVRSSYLAWYQQKPGQAPRLLIYGASRRGTGIPDRFSGSGSGTDFTLTISRLEPEDFAVYYCQQYGSSPWTFGQGTKVEIK
B8: chimeric Fab 253H165L (Fab, V domains shown)
VH: not shown
VL: B7 VL
B9: Fab 316 (Fab, V domains shown)
VH: not shown
VL: QAVLTQPPSASGSPGQSVTISCTGTSSDVGGYNYVSWYQQHPGKAPKLMIYEVSKRPSGVPDRFSGSKSGNTASLTVSGLQAEDEADYYCSSYAGSNHWVFGGGTKLTVL
B10: Fab 88 (Fab, V domains shown)
VH: QLQLQESGPGLVKPSQTLSLTCTVSGGSISSGSYNWTWIRQPAGKGLEWIGRIYNSGSTNYNPSLKSRVTISVDTSKNQLSLKVRSVTAADTAVYYCARHCSGGTCYPKYYYGMDVWGQGTTVTVSS
VL: QSALTQPPSVSEAPRQRVTISCSGSSSNIGNNAVNWYQQFPGKAPKLLIYYDDLLPSGVSDRFSGSKSGTSASLAISGVQSEDEADYYCAAWDDSLNVVVFGGGTKLTVL
notes: also called 88 Fab
B11: mAb 150 (IgG) (antibody, V domains shown)
VH: B4 VH
VL: B4 VL
notes: IgG1
B12: mAb 40 (IgG) (antibody, V domains shown)
VH: B5 VH
VL: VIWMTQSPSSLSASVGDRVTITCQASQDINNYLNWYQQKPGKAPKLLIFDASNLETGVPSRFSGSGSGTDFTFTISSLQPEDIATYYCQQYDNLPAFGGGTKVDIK
notes: IgG1
B13: mAb 158 (IgG) (antibody, V domains shown)
VH: B1 VH
VL: B1 VL
notes: IgG1
B14: mAb 316 (IgG) (antibody, V domains shown)
VH: not shown
VL: B9 VL
notes: IgG1
B15: mAb 159 (IgG) (antibody, V domains shown)
VH: EVQLVESGGGVVQPGRSLRLSCAASGFTFSSYGMHWVRQAPGKGLEWVALISYDGGNRYYADSVKGRFTISRDNSKNTLYLQMNRLRAEDTAMYYCAKDRDDGWDWYYFMDVWGKGTTVTVSS
VL: DIQLTQSPGTLSLSPGERATLSCRASQSISGNYLAWYQHKPGQAPRLLIYGASTRATGIPDRFSGSGSGTDFTLTISRLEPEDFAVYYCQQYGSSYTFGQGTKVEIK
notes: IgG1; also called 159 (anti-spike); IgG159
B16: Fab 159 (Fab, V domains shown)
VH: B15 VH
VL: B15 VL
notes: also called 159 Fab
B17: mAb 88 (IgG) (antibody, V domains shown)
VH: B10 VH
VL: B10 VL
notes: IgG1
B18: Fab 269 (Fab, V domains shown)
VH: QVQLVESGGGLIQPGGSLRLSCAASGLTVNRNYMSWIRQAPGKGLEWVSVIYSGGSTFYADSVKGRFTISRDNSKNTLSLQMNSLRAEDTAIYYCARDFYEGSFDIWGQGTMVTVSS
VL: AIQLTQSPSFLSASIGDRVTITCRASQGISSYLAWYQQKPGKAPKLLIYAASTLQSGVPSRFSGSGSGTEFTLTISSLQPEDFASYYCQQLNSYPAPVFGPGTKVDIK
B19: Fab 45 (Fab, V domains shown)
VH: QVQLVESGGGVVQPGRSLRLSCAASGFTFSTYAMHWVRQAPGKGLEWVAVLSYDGSNKYYADSVKGRFTISRDNSKNTLYLQMNSLRAEDTAVYYCAKGGSYAYYYYMDVWGKGTTVTVSS
VL: not shown
B20: mAb 316 (antibody, V domains shown)
VH: not shown
VL: B9 VL
B21: mAb 316, de-glycosylated (antibody, V domains shown)
VH: not shown
VL: B9 VL
B22: mAb 75 (IgG) (antibody, V domains shown)
VH: B2 VH
VL: B2 VL
notes: IgG1
B23: mAb 384 (IgG) (antibody, V domains shown)
VH: B3 VH
VL: B3 VL
notes: IgG1

The binders below were run against His-tagged RBD for structural analysis (SARS-CoV-2 Wuhan-Hu-1 (MN908947), UniProt P0DTC2, treated with endoglycosidase H1; 'glycosylated RBD' was used for the complex with Fab S309 and Fab384) (assay: crystal structure). Details: both partners purified.

| Binder | binding result |
| --- | --- |
| B1 | binds |
| B2 | binds |
| B3 | binds |

These binders were tested against T1, SARS-CoV-2 spike on intact virus (SARS-CoV-2/human/AUS/VIC01/2020) (SARS-CoV-2, isolate human/AUS/VIC01/2020) (assay: cell-based or functional assay). Details: not given.

| Binder | Table S7: Neutralization IC50 (nM), FRNT of authentic SARS-CoV-2, Fab [nM] | Table S7: Neutralization IC50 (nM), FRNT of authentic SARS-CoV-2 [nM] |
| --- | --- | --- |
| B4 | 0.61 |  |
| B5 | 45.7 |  |
| B6 | 4.12 |  |
| B7 |  | 0.03 |
| B8 | 5.22 |  |
| B9 | 27.6 |  |
| B10 | 6.95 |  |

What follows are binders tested against T1, SARS-CoV-2 spike on intact virus … (assay: ELISA; whole virus ELISA: SARS-CoV-2 virus captured on plates coated with mouse anti-spike mAb31, serial dilutions of IgG or Fab, ALP anti-human IgG (Fab-specific); Kd = concentration at half-maximal binding by nonlinear regression). Details: one partner purified.

| Binder | Kd [nM] |
| --- | --- |
| B4 | 0.75 |
| B11 | 0.24 |
| B5 | 1.23 |
| B12 | 0.33 |
| B6 | 3.73 |
| B13 | 0.5 |
| B7 | 0.09 |
| B8 | 5.02 |
| B9 | 8.76 |
| B14 | 0.13 |
| B15 | 0.19 |
| B16 | 0.29 |
| B10 | 1.21 |
| B17 | 0.25 |

The binders below were run against T2, His-tagged SARS-CoV-2 RBD (Severe acute respiratory syndrome …, UniProt P0DTC2) (assay: BLI). Details: both partners purified.

| Binder | Kd [nM] | koff [s⁻¹] | kon [M⁻¹ s⁻¹] |
| --- | --- | --- | --- |
| B18 | 2.2 | 0.00039 | 180000 |
| B6 | 0.7 | 8.4e-05 | 120000 |
| B19 | 5.9 | 0.00046 | 78000 |
| B9 |  | 0.00071 | 350000 |

What follows are binders tested against His-tagged SARS-CoV-2 RBD (SARS-CoV-2 Wuhan-Hu-1 (MN908947), UniProt P0DTC2) (assay: BLI; Octet RED 96e; anti-RBD IgGs immobilised on AR2G biosensors, RBD as the analyte in serial dilutions; 1:1 global fitting model). Details: both partners purified.

| Binder | Kd [nM] |
| --- | --- |
| B20 | 2 |
| B21 | 1 |

What follows are binders tested against T2, His-tagged SARS-CoV-2 RBD (assay: BLI; competition assay, Octet RED96e, His-tagged RBD on Anti-HIS (HIS2) biosensors, saturating antibody 15 ug/ml then competing IgG 5 ug/ml; 10 mM HEPES pH 7.4, 150 mM NaCl). Details: both partners purified.

| Binder | binding result |
| --- | --- |
| B22 | binds |
| B23 | binds |

— PMC7891125 (Cell, 2021)
